From PMC4422259, “Arc is a flexible modular protein capable of reversible self-oligomerization” (Biochemical Journal, 2015)

Key:
[1] = target: the molecule itself; experiment: dynamic light scattering; hArc 22 μM (1 mg/ml) in 10 mM potassium phosphate, pH 7.4, at 36°C
[2] = target: the molecule itself; experiment: dynamic light scattering; hArc 22 μM (1 mg/ml) in 10 mM potassium phosphate, pH 7.4, without salt, at 20°C and 90°C

B1: recombinant human Arc (activity-regulated cytoskeleton-associated protein), wild type, cleaved from the His-ZZ-hArc fusion protein (natural protein, UniProt Q7LC44 1-396, looked up)
chain: MELDHRTSGGLHAYPGPRGGQVAKPNVILQIGKCRAEMLEHVRRTHRHLLAEVSKQVERELKGLHRSVGKLESNLDGYVPTSDSQRWKKSIKACLCRCQETIANLERWVKREMHVWREVFYRLERWADRLESTGGKYPVGSESARHTVSVGVGGPESYCHEADGYDYTVSPYAITPPPAAGELPGQEPAEAQQYQPWVPGEDGQPSPGVDTQIFEDPREFLSHLEEYLRQVGGSEEYWLSQIQNHMNGPAKKWWEFKQGSVKNWVEFKKEFLQYSEGTLSREAIQRELDLPQKQGEPLDQFLWRKRDLYQTLYVDADEEEIIQYVVGTLQPKLKRFLRHPLPKTLEQLIQRGMEVQDDLEQAAEPAGPHLPVEDEAETLTPAPNSESVASDRTQPE
notes: human Arc (activity-regulated cytoskeleton-associated protein); called full-length hArc; Vector pETZZ_1a; also called WT hArc; Arc/Arg3.1; source: E. coli BL21-CodonPlus, auto-induction medium, purified (Ni-NTA, TEV cleavage, second Ni-NTA flow-through); not shown: His, N-terminal, cleaved; ZZ domain, N-terminal, cleaved
Q: Which results are given for B1?
A: stoichiometry N [1]: > 12 subunits; stoichiometry N [2]: ≥ 40 subunits
